{
  "source": "the supplement of paper PMC10567573",
  "parents": {"B1": {"name": "FAM107A (parent)", "chain": "LQRVLEHRRRNQLIKKKKEELEAK"}, "B2": {"name": "ZER1 (parent)", "chain": "KEMARKVIEHCSNFKEENMDTSR"}},
  "data": [
    {"variants_of": "B1", "test": "protein stability index of a GFP-peptide fusion (GPS, HEK-293T) (PSI 1-6); higher = more stable", "settings": "c terminus: a fixed tail appended", "values": [
      {"variant": "LQRMLEHRRRNQLIKKKKEELEAK", "note": "[V4M]", "protein stability index": 3.1},
      {"variant": "LQRRLEHRRRNQLIKKKKEELEAK", "note": "[V4R]", "protein stability index": 4.14},
      {"variant": "LQRPLEHRRRNQLIKKKKEELEAK", "note": "[V4P]", "protein stability index": 4.66},
      {"variant": "LQRALEHRRRNQLIKKKKEELEAK", "note": "[V4A]", "protein stability index": 4.09},
      {"variant": "LQRGLEHRRRNQLIKKKKEELEAK", "note": "[V4G]", "protein stability index": 3.52},
      {"variant": "LQRFLEHRRRNQLIKKKKEELEAK", "note": "[V4F]", "protein stability index": 2.05},
      {"variant": "LQRSLEHRRRNQLIKKKKEELEAK", "note": "[V4S]", "protein stability index": 3.69},
      {"variant": "LQRTLEHRRRNQLIKKKKEELEAK", "note": "[V4T]", "protein stability index": 3.92},
      {"variant": "LQRVLIHRRRNQLIKKKKEELEAK", "note": "[E6I]", "protein stability index": 2.73},
      {"variant": "LQRVLFHRRRNQLIKKKKEELEAK", "note": "[E6F]", "protein stability index": 3.63},
      {"variant": "LQRVLRHRRRNQLIKKKKEELEAK", "note": "[E6R]", "protein stability index": 3.81},
      {"variant": "LQRVLLHRRRNQLIKKKKEELEAK", "note": "[E6L]", "protein stability index": 2.79},
      {"variant": "LQRVLTHRRRNQLIKKKKEELEAK", "note": "[E6T]", "protein stability index": 3.02},
      {"variant": "LQRVLAHRRRNQLIKKKKEELEAK", "note": "[E6A]", "protein stability index": 3.07},
      {"variant": "LQRVLGHRRRNQLIKKKKEELEAK", "note": "[E6G]", "protein stability index": 3.98},
      {"variant": "LQRVLCHRRRNQLIKKKKEELEAK", "note": "[E6C]", "protein stability index": 3.12},
      {"variant": "LQRVLWHRRRNQLIKKKKEELEAK", "note": "[E6W]", "protein stability index": 3.02},
      {"variant": "LQRVLSHRRRNQLIKKKKEELEAK", "note": "[E6S]", "protein stability index": 4.13},
      {"variant": "LQRVLVHRRRNQLIKKKKEELEAK", "note": "[E6V]", "protein stability index": 3.68},
      {"variant": "LQRVLMHRRRNQLIKKKKEELEAK", "note": "[E6M]", "protein stability index": 3.32},
      {"variant": "LQRVLHHRRRNQLIKKKKEELEAK", "note": "[E6H]", "protein stability index": 3.81},
      {"variant": "LQRVLYHRRRNQLIKKKKEELEAK", "note": "[E6Y]", "protein stability index": 3},
      {"variant": "LQRVLPHRRRNQLIKKKKEELEAK", "note": "[E6P]", "protein stability index": 3.96},
      {"variant": "LQRVLDHRRRNQLIKKKKEELEAK", "note": "[E6D]", "protein stability index": 3.61},
      {"variant": "LQRVLKHRRRNQLIKKKKEELEAK", "note": "[E6K]", "protein stability index": 4.04},
      {"variant": "LQLVLEHRRRNQLIKKKKEELEAK", "note": "[R3L]", "protein stability index": 2.39},
      {"variant": "LQAVLEHRRRNQLIKKKKEELEAK", "note": "[R3A]", "protein stability index": 3.21},
      {"variant": "LQVVLEHRRRNQLIKKKKEELEAK", "note": "[R3V]", "protein stability index": 3.6},
      {"variant": "LQHVLEHRRRNQLIKKKKEELEAK", "note": "[R3H]", "protein stability index": 4.12},
      {"variant": "LQNVLEHRRRNQLIKKKKEELEAK", "note": "[R3N]", "protein stability index": 3.79},
      {"variant": "LQIVLEHRRRNQLIKKKKEELEAK", "note": "[R3I]", "protein stability index": 2.09},
      {"variant": "LQWVLEHRRRNQLIKKKKEELEAK", "note": "[R3W]", "protein stability index": 2.27},
      {"variant": "LQDVLEHRRRNQLIKKKKEELEAK", "note": "[R3D]", "protein stability index": 4.5},
      {"variant": "LQCVLEHRRRNQLIKKKKEELEAK", "note": "[R3C]", "protein stability index": 3.13},
      {"variant": "LQKVLEHRRRNQLIKKKKEELEAK", "note": "[R3K]", "protein stability index": 3.69},
      {"variant": "LQEVLEHRRRNQLIKKKKEELEAK", "note": "[R3E]", "protein stability index": 5.32},
      {"variant": "LQTVLEHRRRNQLIKKKKEELEAK", "note": "[R3T]", "protein stability index": 3.8},
      {"variant": "LQSVLEHRRRNQLIKKKKEELEAK", "note": "[R3S]", "protein stability index": 4.04},
      {"variant": "LQFVLEHRRRNQLIKKKKEELEAK", "note": "[R3F]", "protein stability index": 3.04},
      {"variant": "LQQVLEHRRRNQLIKKKKEELEAK", "note": "[R3Q]", "protein stability index": 3.92},
      {"variant": "LQYVLEHRRRNQLIKKKKEELEAK", "note": "[R3Y]", "protein stability index": 3.39},
      {"variant": "LQRVLEHRHRNQLIKKKKEELEAK", "note": "[R9H]", "protein stability index": 3.65},
      {"variant": "LQRVLEHRFRNQLIKKKKEELEAK", "note": "[R9F]", "protein stability index": 2.49},
      {"variant": "LQRVLEHRDRNQLIKKKKEELEAK", "note": "[R9D]", "protein stability index": 3.96},
      {"variant": "LQRVLEHRSRNQLIKKKKEELEAK", "note": "[R9S]", "protein stability index": 4.03},
      {"variant": "LQRVLEHRARNQLIKKKKEELEAK", "note": "[R9A]", "protein stability index": 4.4},
      {"variant": "LQRVLEHRGRNQLIKKKKEELEAK", "note": "[R9G]", "protein stability index": 4.14},
      {"variant": "LQRVLEHRIRNQLIKKKKEELEAK", "note": "[R9I]", "protein stability index": 2.72},
      {"variant": "LQRVLEHRLRNQLIKKKKEELEAK", "note": "[R9L]", "protein stability index": 1.72},
      {"variant": "LQRVLEHRVRNQLIKKKKEELEAK", "note": "[R9V]", "protein stability index": 2.16},
      {"variant": "LQRVLEHRKRNQLIKKKKEELEAK", "note": "[R9K]", "protein stability index": 3.76},
      {"variant": "LQRVLEHRYRNQLIKKKKEELEAK", "note": "[R9Y]", "protein stability index": 1.84},
      {"variant": "LQRVLEHRERNQLIKKKKEELEAK", "note": "[R9E]", "protein stability index": 3.97},
      {"variant": "LQRVLEHRMRNQLIKKKKEELEAK", "note": "[R9M]", "protein stability index": 2.77},
      {"variant": "LQRVLEHRPRNQLIKKKKEELEAK", "note": "[R9P]", "protein stability index": 3.81},
      {"variant": "LQRVLEHRTRNQLIKKKKEELEAK", "note": "[R9T]", "protein stability index": 4.07},
      {"variant": "LQRVLEHRCRNQLIKKKKEELEAK", "note": "[R9C]", "protein stability index": 3.23}
    ]},
    {"variants_of": "B2", "test": "protein stability index of a GFP-peptide fusion (GPS, HEK-293T) (PSI 1-6); higher = more stable", "settings": "c terminus: native", "values": [
      {"variant": "KEMARKVIEHCSNFKEENMDTKR", "note": "[S22K]", "protein stability index": 2.86},
      {"variant": "KEMARKVIEHCSNFKEENMDTLR", "note": "[S22L]", "protein stability index": 3.58},
      {"variant": "KEMARKVIEHCSNFKEENMDTDR", "note": "[S22D]", "protein stability index": 4.07},
      {"variant": "KEMARKVIEHCSNFKEENMDTPR", "note": "[S22P]", "protein stability index": 4.29},
      {"variant": "KEMARKVIEHCSNFKEENMDTQR", "note": "[S22Q]", "protein stability index": 3.72},
      {"variant": "KEMARKVIEHCSNFKEENMDTAR", "note": "[S22A]", "protein stability index": 2.64},
      {"variant": "KEMARKVIEHCSNFKEENMDTFR", "note": "[S22F]", "protein stability index": 3.72},
      {"variant": "KEMARKVIEHCSNFKEENMDTIR", "note": "[S22I]", "protein stability index": 3.72},
      {"variant": "KEMARKVIEHCSNFKEENMDTVR", "note": "[S22V]", "protein stability index": 3.7},
      {"variant": "KEMARKVIEHCSNFKEENMDTWR", "note": "[S22W]", "protein stability index": 2.97},
      {"variant": "KEMARKVIEHCSNFKEENMDTNR", "note": "[S22N]", "protein stability index": 4.12},
      {"variant": "KEMARKVIEHCSNFKEENMDTHR", "note": "[S22H]", "protein stability index": 3.09},
      {"variant": "KEMARKVIEHCSNFKEENMDTGR", "note": "[S22G]", "protein stability index": 3.48},
      {"variant": "KEMARKVIEHCSNFKEENMDTYR", "note": "[S22Y]", "protein stability index": 3.76},
      {"variant": "KEMARKVIEHCSNFKEENMDTMR", "note": "[S22M]", "protein stability index": 3.43},
      {"variant": "KEMARKVIEHCSNFKEENMDTCR", "note": "[S22C]", "protein stability index": 2.4},
      {"variant": "KEMARKVIEHCSNFKEENMDTRR", "note": "[S22R]", "protein stability index": 2.38},
      {"variant": "KEMARKVIEHCSNFKEENMDTTR", "note": "[S22T]", "protein stability index": 4.42},
      {"variant": "KEMARKVIEHCSNFKEENMDTER", "note": "[S22E]", "protein stability index": 3.74},
      {"variant": "KEMARKVIEHCSNFKEENMDTSD", "note": "[R23D]", "protein stability index": 5.41},
      {"variant": "KEMARKVIEHCSNFKEENMDTSQ", "note": "[R23Q]", "protein stability index": 5.31},
      {"variant": "KEMARKVIEHCSNFKEENMDTSL", "note": "[R23L]", "protein stability index": 4.86},
      {"variant": "KEMARKVIEHCSNFKEENMDTSA", "note": "[R23A]", "protein stability index": 4.67},
      {"variant": "KEMARKVIEHCSNFKEENMDTSK", "note": "[R23K]", "protein stability index": 5.27},
      {"variant": "KEMARKVIEHCSNFKEENMDTSY", "note": "[R23Y]", "protein stability index": 4.54},
      {"variant": "KEMARKVIEHCSNFKEENMDTSH", "note": "[R23H]", "protein stability index": 5.07},
      {"variant": "KEMARKVIEHCSNFKEENMDTSS", "note": "[R23S]", "protein stability index": 4.84},
      {"variant": "KEMARKVIEHCSNFKEENMDTSM", "note": "[R23M]", "protein stability index": 4.6},
      {"variant": "KEMARKVIEHCSNFKEENMDTSN", "note": "[R23N]", "protein stability index": 5.16},
      {"variant": "KEMARKVIEHCSNFKEENMDTSP", "note": "[R23P]", "protein stability index": 4.6},
      {"variant": "KEMARKVIEHCSNFKEENMDTSV", "note": "[R23V]", "protein stability index": 4.76},
      {"variant": "KEMARKVIEHCSNFKEENMDTSG", "note": "[R23G]", "protein stability index": 5.08},
      {"variant": "KEMARKVIEHCSNFKEENMDTSF", "note": "[R23F]", "protein stability index": 4.69},
      {"variant": "KEMARKVIEHCSNFKEENMDTSE", "note": "[R23E]", "protein stability index": 5.48},
      {"variant": "KEMARKVIEHCSNFKEENMDTSC", "note": "[R23C]", "protein stability index": 4.72},
      {"variant": "KEMARKVIEHCSNFKEENMDTSW", "note": "[R23W]", "protein stability index": 3.91},
      {"variant": "KEMARKVIEHCSNFKEENMDTSI", "note": "[R23I]", "protein stability index": 4.9},
      {"variant": "KEMARKVIEHCSNFKEENMDTST", "note": "[R23T]", "protein stability index": 5.01}
    ]}
  ]
}
